This passage reports IC50 results from patent publication US20090233868.

Data set [1] addresses T1, LaR2C peptide (24-mer, La 174-197) (Homo sapiens) (UniProt P05455).
T1 sequence: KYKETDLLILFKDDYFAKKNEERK
Put plainly: inhibition. Conditions: inhibition of HCV IRES translation in rabbit reticulocyte lysate.

Data set [2] concerns T2, LaR2C-N7 (La 174-180) (Homo sapiens).
T2 sequence: KYKETDL
Put plainly: inhibition. The settings on record: inhibition of HCV IRES translation in rabbit reticulocyte lysate; rescued by La.

As a reminder, the IC50 is the concentration at which inhibition is half-maximal. Higher therefore signals weaker potency in that assay. Turning to “HCV IRES-luciferase monocistronic RNA (uncapped)”, the half-maximal inhibitory concentration (IC50) turned out to be 30 µM in data set [1] and 40 µM in data set [2].
